The source of these data is article PMC6377630, “NapM enhances the survival of Mycobacterium tuberculosis under stress and in macrophages” (Communications Biology, 2019).

For data set [1], the system named is NapM (Mycobacterium tuberculosis H37Ra). The data set can be described thus: EMSA. The following applies: pH and temperature not stated. Background: A gel shift assay detects complexes by their altered migration in electrophoresis.
The test system of data set [2] is DnaA (Mycobacterium tuberculosis H37Ra). The data set can be described thus: EMSA. The following applies: pH and temperature not stated.

What is called Kd is the concentration at which binding is half-saturated. Low values mean a tighter complex, high ones a looser complex. As to oriC fragment, the figures for the Kd in data set [1] and in data set [2] were 458 nM and 60.5 nM, respectively.
